Data as given in a protein production outcome set (Wang et al. 2014).

Assay: label from the status in PepcDB records

Row | Sequence | protein production
1 | MPKLSVIVPTFNRQVLLEKAIKSIQNQDFKDLEIIVSDDNSSDDTKSVVQNLQKDDDRIKYFLNQNYKQGPNGNKNNGLDQASGEFVTFLDDDDELLSGALSTLMQKANEGYAHVFGNCLIEKEGNLSKEFSGKGLEKDSEISKKDFLMAKFSGEFFSVFKKSLLENKRFNEEFYGNEATLWVNLYKEKSFYIHKAFRIYRIFRQDSVTLGASKNAYRVYLGYLELAKILENELRMSKDKDYKKTCASYYKMAAYYAKLAKNYKALYKCLFKSLSIKINAPALILLILSIIPNNMIEKLSKIRVALCKN | failed
2 | MPKTKLTSPPFKILKCTECDACINVPSILQSNEQAECPRCHHLLASGTRWSLHRCAMIALSILILMPFSLNYPLLSLHLLGIKIDASIWDGIWKMAVGGYEYTAFMIFICAVVMPITFALLVIMLWLAKIFQIKPRSVLLFLGYIKAWVMFDVYLVALGVTIFKVREYATLEINIYLIPFIFTALLTTLLFIKLNLSALWQEFYPECTSVYTKQAVELCPACHYTFTQKSIHYDHQQKICCPRCQSPLNTSDKLKLQATWATLIAGIIMLFPANLLPISGIYLTGALSEDTLISGVISFVKSGSYFVAFVVFFASIFVPISKIFIMLYLLACVHFKWQHSIKWQMRLLHLVHFVGRWSMLDLFVLALMMSLVTRGEIINFTVGPGAFYFGAAVFCTMLSTSQFDSKLIWKIYDREK | failed
3 | MPKVNLYATFRDLTGKSQLELPGATVGEVLENLVRAYPALKEELFEGEGLAERVSVFLEGRDVRYLQGLSTPLSPGATLDLFPPVAGGGFERTFGAFPPWLLERYLEEWGGTREGEGVYRLPGAVVRFREVEPLKVGSLSIPQLRVEVEGEEAERWFERIAFAASRGGG | not failed
4 | MPLDAPPLLPSADSDSTVSILQAKGDAPPAAATAAVGWPLLALTTWFGSGLIPLAPGTMGSIAALPFAWAIAWTWGPWALAPAAALVFVIGTLAAEAHVRRSGEKDPQRIVIDEVAGQWLTLAVAPLDPLAYGVGLVLFRICDITKPWPACWADRSVPGGFGIMLDDGFAAVYSTCMMALYVHYFM | failed
5 | MPLDRDWIAQRIPHAGAMCLLDRVLTWDAGRLRCVAVSHLSPGNPLRAGGRLSVVCGIEYAAQATAVHGALRSAGEGEAPRSGFLVSVRDVEFHVRRLDTLDGDLVVEVECLTGDGNDALYRFRLLAADGRELLTGRLAVRLDAEAGLEHHHHHH | not failed
6 | MPLITTETGKKMHVLEDGRKLITVIPGDGIGPECVEATLKVLEAAKAPLAYEVREAGASVFRRGIASGVPQETIESIRKTRVVLKGPLETPVGYGEKSANVTLRKLFETYANVRPVREFPNVPTPYAGRGIDLVVVRENVEDLYAGIEHMQTPSVAQTLKLISWKGSEKIVRFAFELARAEGRKKVHCATKSNIMKLAEGTLKRAFEQVAQEYPDIEAVHIIVDNAAHQLVKRPEQFEVIVTTNMNGDILSDLTSGLIGGLGFAPSANIGNEVAIFEAVHGSAPKYAGKNVINPTAVLLSAVMMLRYLEEFATADLIENALLYTLEEGRVLTGDVVGYDRGAKTTEYTEAIIQNLGKTPRKTQVRGYKPFRLPQVDGAIAPIVPRSRRVVGVDVFVETNLLPEALGKALEDLAAGTPFRLKMISNRGTQVYPPTGGLTDLVDHYRCRFLYTGEGEAKDPEILDLVSRVASRFRWMHLEKLQEFDGEPGFTKAQGED | not failed
7 | MPLLIITTILWAFSFSLIGEYLAGQVDSWFSAMFRLTAAAVVFLPFLRWRGYAPRVIFLYMLVGACQLGIMYLFVFQAYLYLTVPEFLLFTVMTPLYVTLIYDLLARHRLRWGYVMSALLAVFGAAVIHYHGVSEHFWWGFLLVQVANVCFASGQVGYKRLMEIHPVPQHCAFSWFYLGAAIVTIAAWLLFGNMDKLPTTTLQWGVLAWLGIGASGVGYFMWNYGATQVDAGTLSIMNNFHVPAGLLVNFAIWHKTPDWLSFIVGTAIITSSLWVHQHWVVKRPLRTANDHKRADAQNE | failed
8 | MPLLPHNRTALGFLLRHLIAGLTGGLVFGGLILALDISGLRSMLMASQDGLLYTLLLFFGLSVTFGGVAMGVGVMSLGEDKN | failed
